From article PMC8440931, “Physical and Functional Interaction of Mitochondrial Single-Stranded DNA-Binding Protein and the Catalytic Subunit of DNA Polymerase Gamma” (Frontiers in Genetics, 2021)

T1: mtSSB (wild type) (UniProt Q04837 17-148)
T1 sequence: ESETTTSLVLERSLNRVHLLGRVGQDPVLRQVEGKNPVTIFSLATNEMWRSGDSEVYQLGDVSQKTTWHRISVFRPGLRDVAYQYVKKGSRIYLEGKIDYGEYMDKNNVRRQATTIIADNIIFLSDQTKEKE

B1: biotinylated mtSSB variant lacking nine residues of loop 2.3 (Δ67-75), BTN-mtSSB_(l2.3) (natural protein, human, UniProt Q04837 17-148, looked up)
chain: ESETTTSLVLERSLNRVHLLGRVGQDPVLRQVEGKNPVTIFSLATNEMWRGDVSQKTTWHRISVFRPGLRDVAYQYVKKGSRIYLEGKIDYGEYMDKNNVRRQATTIIADNIIFLSDQTKEKE
modifications: biotin (conjugated; site not stated)
notes: also called loop 2.3-deficient mtSSB; source: purified recombinant protein; details in the Supplementary Materials
B2: catalytic subunit of mitochondrial DNA polymerase gamma (Pol γα) (enzyme, human, UniProt P54098 1-1239, looked up)
chain: MSRLLWRKVAGATVGPGPVPAPGRWVSSSVPASDPSDGQRRRQQQQQQQQQQQQQPQQPQVLSSEGGQLRHNPLDIQMLSRGLHEQIFGQGGEMPGEAAVRRSVEHLQKHGLWGQPAVPLPDVELRLPPLYGDNLDQHFRLLAQKQSLPYLEAANLLLQAQLPPKPPAWAWAEGWTRYGPEGEAVPVAIPEERALVFDVEVCLAEGTCPTLAVAISPSAWYSWCSQRLVEERYSWTSQLSPADLIPLEVPTGASSPTQRDWQEQLVVGHNVSFDRAHIREQYLIQGSRMRFLDTMSMHMAISGLSSFQRSLWIAAKQGKHKVQPPTKQGQKSQRKARRGPAISSWDWLDISSVNSLAEVHRLYVGGPPLEKEPRELFVKGTMKDIRENFQDLMQYCAQDVWATHEVFQQQLPLFLERCPHPVTLAGMLEMGVSYLPVNQNWERYLAEAQGTYEELQREMKKSLMDLANDACQLLSGERYKEDPWLWDLEWDLQEFKQKKAKKVKKEPATASKLPIEGAGAPGDPMDQEDLGPCSEEEEFQQDVMARACLQKLKGTTELLPKRPQHLPGHPGWYRKLCPRLDDPAWTPGPSLLSLQMRVTPKLMALTWDGFPLHYSERHGWGYLVPGRRDNLAKLPTGTTLESAGVVCPYRAIESLYRKHCLEQGKQQLMPQEAGLAEEFLLTDNSAIWQTVEELDYLEVEAEAKMENLRAAVPGQPLALTARGGPKDTQPSYHHGNGPYNDVDIPGCWFFKLPHKDGNSCNVGSPFAKDFLPKMEDGTLQAGPGGASGPRALEINKMISFWRNAHKRISSQMVVWLPRSALPRAVIRHPDYDEEGLYGAILPQVVTAGTITRRAVEPTWLTASNARPDRVGSELKAMVQAPPGYTLVGADVDSQELWIAAVLGDAHFAGMHGCTAFGWMTLQGRKSRGTDLHSKTATTVGISREHAKIFNYGRIYGAGQPFAERLLMQFNHRLTQQEAAEKAQQMYAATKGLRWYRLSDEGEWLVRELNLPVDRTEGGWISLQDLRKVQRETARKSQWKKWEVVAERAWKGGTESEMFNKLESIATSDIPRTPVLGCCISRALEPSAVQEEFMTSRVNWVVQSSAVDYLHLMLVAMKWLFEEFAIDGRFCISIHDEVRYLVREEDRYRAALALQITNLLTRCMFAYKLGLNDLPQSVAFFSAVDIDRCLRKEVTMDCKTPSNPTGMERRYGIPQGEALDIYQIIELTKGSLEKRSQPGP
B3: biotinylated mitochondrial single-stranded DNA-binding protein (BTN-mtSSB), wild type (natural protein, human, UniProt Q04837 17-148, looked up)
chain: T1 sequence
modifications: biotin (conjugated; site not stated)
notes: also called mtSSB4; wild-type mtSSB; source: purified recombinant protein; details in the Supplementary Materials
B4: BTN-ssDNA 40-mer (ssDNA)
DNA: ATTATGAATTAATTTAATAATTTTTTTTTTTTTTTTTTTT
modifications: 5'-biotin

What was measured:
Pol γβ (Homo sapiens) = Pol γβ (Homo sapiens) (UniProt Q9UHN1); conditions: cited from earlier work
Chain of Pol γβ (Homo sapiens) (Q9UHN1 2-485): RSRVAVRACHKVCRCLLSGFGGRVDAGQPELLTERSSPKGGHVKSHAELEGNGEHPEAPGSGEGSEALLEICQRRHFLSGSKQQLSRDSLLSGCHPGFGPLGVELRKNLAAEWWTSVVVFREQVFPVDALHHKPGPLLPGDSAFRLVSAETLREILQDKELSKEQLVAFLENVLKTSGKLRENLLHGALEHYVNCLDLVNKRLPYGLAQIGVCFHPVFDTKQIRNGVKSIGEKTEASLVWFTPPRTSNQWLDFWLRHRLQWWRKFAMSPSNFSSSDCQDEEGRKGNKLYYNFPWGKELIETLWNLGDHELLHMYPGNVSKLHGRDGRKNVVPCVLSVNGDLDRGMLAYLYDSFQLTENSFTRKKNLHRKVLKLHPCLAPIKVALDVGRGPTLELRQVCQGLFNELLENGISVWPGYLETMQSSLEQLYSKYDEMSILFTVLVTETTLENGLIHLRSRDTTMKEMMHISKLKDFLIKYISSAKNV

[1] = target: B2; assay: BLI; BTN-mtSSB or BTN-mtSSB_(l2.3) (600 nM) saturated on streptavidin sensors; Pol γα as analyte at increasing concentrations; Ac buffer: 50 mM Tris-HCl pH 8.0, 10 mM KCl, 4 mM MgCl2, 0.4 mg/ml BSA, 10 mM DTT; 30°C, 1,000 rpm; 1:1 interaction model; conditions: both partners purified
[2] = target: B1; assay: cell-based or functional assay
mtSSB (wild type) = target: T1, mtSSB (wild type); assay: BLI; 4 mM Mg2+; equilibrium responses of mass transfer fit, non-1:1 binding; BLI: 50 mM Tris-HCl pH 8.0, 10 mM KCl, 4 mM MgCl2, 0.4 mg/ml BSA, 10 mM DTT, 30 C; conditions: protein: recombinant; chain copies: 4; label: 5'-biotin (immobilized on streptavidin sensor); single strand

Molecule: Pol γα (from UniProt P54098)
Kd (Pol γβ (Homo sapiens)): 20 nM

Molecule: B1
Kd [1]: 26 nM

Molecule: B2
inhibition of primer extension by Pol γα on primer-template (15/59) DNA (mtSSB displacement assay), mtSSB_(l2.3) at 1:1 (~10%) and three-fold molar ratio to DNA template [2]: ~25%

Molecule: B3
Kd [1]: 48 nM

Molecule: B4
Kd (mtSSB (wild type)): 2.3 nM
